Measured values: patent US20250326797A1, “PROTEIN-PROTEIN INTERACTION MODULATORS AND METHODS FOR DESIGN THEREOF” (RAMOT AT TEL AVIV UNIVERSITY LTD., priority 2022, published 2025)
One block for each molecule: values may come before it.

How the values were obtained:
[1] = biological target: T1, CaN PxIxIT binding site (CaNA, catalytic subunit of calcineurin) (Homo sapiens, UniProt Q08209, L343A/M347D/Y341S); assay: Fluorescence Polarization (FP) competition assay with FITC-labeled PVIVIT peptide; details: for ability to compete with PVIVIT for CaN binding: result in words; for IC50: competition with 100 nM FITC-labeled PVIVIT peptide, 4 uM CaNA, single site inhibition model, read-out: IC50: half maximal inhibitory concentration
T1 construct: GST; made in house; host or cells: E. coli BL21
Protocol: (§1) Fluorescence Polarization (FP) competition assay. Fluorescence measurements were performed on samples arrayed in a 96-well plate using Biotek HybridHI reader equipped with a polarized optic system. All measurements were done in triplicate. […] Experimental polarization data from simple and competitive binding experiments were fitted using GraphPad Prism7, with error bars representing standard deviation.
Selected peptides were synthesized and their ability to specifically bind the CaN PxIxIT binding site was evaluated by FP competition assay.
(§2) Polarization levels were read and normalized values were fitted to a single site model.
The above peptides are synthesized and their ability to specifically bind the CaN PxIxIT binding site is evaluated by FP competition assay. […] After fitting the polarization values to a single site inhibition model, the corresponding IC50 values are extracted.

[2] = biological target: T2, Catalytic subunit of calcineurin (CaNA), residues 2-347 with substitutions Y341S, L343A and M347D (UniProt Q08209 2-347); assay: FP competition assay against FITC-PVIVIT (100 nM) on CaNA (4 uM); single site inhibition fit
T2 construct: range 2-347; Expressed as a cleavable GST fusion and purified on a GST column and by size exclusion; The microarray used GST-tagged CaN; also called Cn
Protocol: as §1
(§3) Selected peptides were synthesized and their ability to specifically bind the CaN PxIxIT binding site was evaluated by FP competition assay. […] After fitting the polarization values to a single site inhibition model, the corresponding IC₅₀ values were extracted and reported in Table 2.

[3] = biological target: T2, Catalytic subunit of calcineurin …; assay: FP competition assay against FITC-PVIVIT on CaNA
Protocol: as §1, §3

[4] = biological target: T2, Catalytic subunit of calcineurin …; assay: fluorescence polarization competition; unlabeled peptide titrated against 100 nM FITC-labeled PVIVIT bound to 4 uM CaNA
Protocol: as §1, §3, §2

T1 sequence (Q08209 2-347 Y341S/L343A/M347D): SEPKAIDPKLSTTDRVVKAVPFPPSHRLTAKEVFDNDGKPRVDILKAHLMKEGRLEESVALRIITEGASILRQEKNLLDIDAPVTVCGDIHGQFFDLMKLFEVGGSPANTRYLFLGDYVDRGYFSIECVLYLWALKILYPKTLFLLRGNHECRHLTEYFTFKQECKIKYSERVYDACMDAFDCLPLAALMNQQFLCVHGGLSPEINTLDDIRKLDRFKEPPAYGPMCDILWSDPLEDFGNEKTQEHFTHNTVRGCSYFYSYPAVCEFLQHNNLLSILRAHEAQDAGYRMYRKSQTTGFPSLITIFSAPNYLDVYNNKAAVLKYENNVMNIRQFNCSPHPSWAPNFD
T2 sequence (Q08209 2-347 Y341S/L343A/M347D): as above

Molecule: Ac-ADGAGVGIVITVTEAE-NH2 [rbmAKAP79_2]
ability to compete with PVIVIT for CaN binding [1]: successfully competed with PVIVIT binding

Molecule: Ac-ADEAVPQIIISAEELP-NH2 [TRESK, reference compound]
IC50 [1]: 54 µM

Molecule: Ac-AAGAGVGIVITVTEAE-NH2 [rbmAKAP79]
ability to compete with PVIVIT for CaN binding [1]: successfully competed with PVIVIT binding

Molecule: Ac-AAGAGVGIVITVTEAE-NH2 (designed binder) [rbmAKAP79]
IC50 [2]: 57 µM

Molecule: Ac-ADGAGVGIVITVTEAE-NH2 (designed binder) [rbmAKAP79_2]
IC50 [2]: 69 µM

Molecule: Ac-ASVSNPEITVTSAETE-NH2 (designed binder) [rbmRIPOR2]
IC50 [2]: 79 µM

Second part, the molecule after the results:

IC50 [1]: 14 µM | IC50 relative to closest natural counterpart (human TRESK fragment) ([1]; rbmTRESK vs natural TRESK fragment): almost four times lower
Molecule: Ac-ADEAIPEIVISKPEEP-NH2 [rbmTRESK]

IC50 [2]: 200 µM
Molecule: Ac-HVSSSPRITITPTQHR-NH2 (designed binder) [rbmRIPOR2_2]

IC50 [2]: 60 µM
Molecule: Ac-ADEAIPEITITSAELP-NH2 (designed binder) [rbmTRESK_2]

fold lower IC50 than the CaN-binding fragment of human TRESK protein (SEQ ID NO: 3) [3]: ~4 fold | IC50 (read off the curve) [4]: ~10 µM
Molecule: Ac-ADEAIPEIVISKPEEP-NH2 (designed binder) [rbmTRESK]
